Here are results for 3 molecules from patent publication US20140274782A1, “AFFINITY REAGENTS AND METHODS FOR DETECTION, PURIFICATION, AND PROTEOMIC ANALYSIS OF METHYLATED PROTEINS” (The Board of Trustees of the Leland Stanford Junior …, priority 2013, published 2014).

Assay [1] concerns the target T1, G9a and GLP (Homo sapiens, UniProt Q96KQ7+Q9H9B1).
T1 sequence (Q96KQ7 2-1210 limits assumed): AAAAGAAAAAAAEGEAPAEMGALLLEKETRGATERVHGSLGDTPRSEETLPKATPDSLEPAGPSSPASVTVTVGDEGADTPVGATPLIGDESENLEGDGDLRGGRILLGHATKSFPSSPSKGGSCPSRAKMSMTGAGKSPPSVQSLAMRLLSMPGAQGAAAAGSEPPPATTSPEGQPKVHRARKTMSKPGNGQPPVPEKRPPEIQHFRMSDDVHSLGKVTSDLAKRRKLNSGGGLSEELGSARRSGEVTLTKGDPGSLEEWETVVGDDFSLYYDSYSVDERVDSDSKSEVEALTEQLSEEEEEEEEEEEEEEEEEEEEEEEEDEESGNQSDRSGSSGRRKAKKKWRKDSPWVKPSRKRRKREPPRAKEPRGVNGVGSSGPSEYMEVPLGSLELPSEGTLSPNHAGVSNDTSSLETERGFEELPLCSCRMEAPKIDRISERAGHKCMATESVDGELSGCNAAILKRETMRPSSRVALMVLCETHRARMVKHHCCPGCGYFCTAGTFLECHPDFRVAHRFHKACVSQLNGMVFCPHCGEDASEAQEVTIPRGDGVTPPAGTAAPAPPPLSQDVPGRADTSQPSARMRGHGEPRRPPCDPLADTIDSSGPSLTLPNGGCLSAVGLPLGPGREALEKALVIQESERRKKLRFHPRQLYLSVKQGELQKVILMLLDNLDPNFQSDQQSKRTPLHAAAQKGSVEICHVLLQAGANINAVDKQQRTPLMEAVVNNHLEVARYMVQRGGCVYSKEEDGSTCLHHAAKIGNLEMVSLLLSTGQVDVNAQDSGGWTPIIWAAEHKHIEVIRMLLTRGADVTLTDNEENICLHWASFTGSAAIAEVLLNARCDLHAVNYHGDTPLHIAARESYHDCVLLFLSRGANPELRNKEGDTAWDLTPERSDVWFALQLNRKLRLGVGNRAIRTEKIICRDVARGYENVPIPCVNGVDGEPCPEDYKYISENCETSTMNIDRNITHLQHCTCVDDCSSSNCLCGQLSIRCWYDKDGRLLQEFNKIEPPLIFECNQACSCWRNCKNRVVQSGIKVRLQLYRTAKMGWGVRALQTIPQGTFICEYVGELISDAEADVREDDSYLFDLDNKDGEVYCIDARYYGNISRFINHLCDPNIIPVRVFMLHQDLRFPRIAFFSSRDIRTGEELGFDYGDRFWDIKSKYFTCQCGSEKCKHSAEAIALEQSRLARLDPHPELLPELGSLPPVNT
T1 sequence (Q9H9B1 2-1298 limits assumed): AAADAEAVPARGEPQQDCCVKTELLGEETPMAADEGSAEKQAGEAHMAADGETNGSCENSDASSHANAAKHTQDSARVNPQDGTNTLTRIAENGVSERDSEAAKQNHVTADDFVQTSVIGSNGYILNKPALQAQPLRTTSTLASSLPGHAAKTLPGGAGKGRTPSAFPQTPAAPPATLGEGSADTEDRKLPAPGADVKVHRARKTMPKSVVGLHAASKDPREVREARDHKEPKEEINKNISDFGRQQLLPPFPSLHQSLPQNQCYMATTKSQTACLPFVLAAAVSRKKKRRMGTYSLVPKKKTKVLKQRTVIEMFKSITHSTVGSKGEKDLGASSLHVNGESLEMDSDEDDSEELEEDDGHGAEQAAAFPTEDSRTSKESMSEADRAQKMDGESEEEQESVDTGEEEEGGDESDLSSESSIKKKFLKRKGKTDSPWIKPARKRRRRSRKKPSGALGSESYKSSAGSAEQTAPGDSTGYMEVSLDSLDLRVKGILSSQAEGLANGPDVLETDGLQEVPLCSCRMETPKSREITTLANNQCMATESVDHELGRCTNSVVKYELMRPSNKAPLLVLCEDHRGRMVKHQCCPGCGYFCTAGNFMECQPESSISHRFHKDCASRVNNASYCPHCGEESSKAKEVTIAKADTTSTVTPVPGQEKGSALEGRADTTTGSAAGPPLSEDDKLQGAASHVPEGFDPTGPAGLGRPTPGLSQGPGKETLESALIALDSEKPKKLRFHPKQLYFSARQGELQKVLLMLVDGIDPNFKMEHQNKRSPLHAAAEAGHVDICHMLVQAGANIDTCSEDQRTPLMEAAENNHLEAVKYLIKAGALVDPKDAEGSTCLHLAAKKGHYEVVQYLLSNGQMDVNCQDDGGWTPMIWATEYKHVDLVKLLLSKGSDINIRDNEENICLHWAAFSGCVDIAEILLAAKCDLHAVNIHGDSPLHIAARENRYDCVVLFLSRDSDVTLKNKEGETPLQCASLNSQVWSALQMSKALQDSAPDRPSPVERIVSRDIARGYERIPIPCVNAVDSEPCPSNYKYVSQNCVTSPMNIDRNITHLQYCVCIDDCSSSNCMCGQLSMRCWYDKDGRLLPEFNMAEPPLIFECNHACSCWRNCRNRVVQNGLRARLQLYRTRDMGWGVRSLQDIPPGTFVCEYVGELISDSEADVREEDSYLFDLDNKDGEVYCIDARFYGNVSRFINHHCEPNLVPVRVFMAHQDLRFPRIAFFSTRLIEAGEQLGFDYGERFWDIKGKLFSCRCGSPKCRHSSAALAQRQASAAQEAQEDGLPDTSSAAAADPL
The assay can be described thus: Triple SILAC pull-down after UNC0638 treatment of 293T cells, DMSO/UNC0638 ratio of protein captured by 3×MBT.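 As to all read-outs here: mass spectrometry (Q-Exactive) SILAC quantitation, DMSO/UNC0638 ratio computed after subtracting 3×MBTD355N mutant pull-down background, only proteins with at least twofold 3×MBT over mutant signal considered.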 Format: cell-based. On the set-up: endogenous in cells; host or cells: HEK 293T. The settings on record: all values in log base 2; for Relative to UNC0638 UNC Heavy / Relative to UNC0638 UNC Light: SILAC ratio DMSO relative to UNC0638, pull-down with 3xMBT; for Relative to UNC0638 UNC Heavy: UNC0638 in heavy SILAC media; for Relative to UNC0638 UNC Light: UNC0638 in light SILAC media; for Relative to UNC0638 Average: average of UNC Light and UNC Heavy experiments.

Assay [2] has as its system 3×MBT domain of L3MBTL1. As to the kind of experiment: Triple SILAC pull-down, 3xMBT/3xMBTD355N ratio (cytoplasmic, nuclear and chromatin fractions of 293T cells).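 As to all read-outs here: proteins quantified with MaxQuant, requiring at least two unique peptides and quantification in both label directions, normalized to the mean of proteins from a digested loading control.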 In kind it is binding, human. The following applies: SILAC ratio 3xMBT vs 3xMBTD355N pull-down, 293T cells, all values in log base 2; for 3xMBT/D355N UNC Heavy: experiment with UNC0638 in heavy SILAC media; for 3xMBT/D355N UNC Light: experiment with UNC0638 in light SILAC media.

B1: BAZ1B (protein, UniProt Q9UIG0 1-1483, looked up)
Tyrosine-protein kinase BAZ1B: MAPLLGRKPFPLVKPLPGEEPLFTIPHTQEAFRTREEYEARLERYSERIWTCKSTGSSQLTHKEAWEEEQEVAELLKEEFPAWYEKLVLEMVHHNTASLEKLVDTAWLEIMTKYAVGEECDFEVGKEKMLKVKIVKIHPLEKVDEEATEKKSDGACDSPSSDKENSSQIAQDHQKKETVVKEDEGRRESINDRARRSPRKLPTSLKKGERKWAPPKFLPHKYDVKLQNEDKIISNVPADSLIRTERPPNKEIVRYFIRHNALRAGTGENAPWVVEDELVKKYSLPSKFSDFLLDPYKYMTLNPSTKRKNTGSPDRKPSKKSKTDNSSLSSPLNPKLWCHVHLKKSLSGSPLKVKNSKNSKSPEEHLEEMMKMMSPNKLHTNFHIPKKGPPAKKPGKHSDKPLKAKGRSKGILNGQKSTGNSKSPKKGLKTPKTKMKQMTLLDMAKGTQKMTRAPRNSGGTPRTSSKPHKHLPPAALHLIAYYKENKDREDKRSALSCVISKTARLLSSEDRARLPEELRSLVQKRYELLEHKKRWASMSEEQRKEYLKKKREELKKKLKEKAKERREKEMLERLEKQKRYEDQELTGKNLPAFRLVDTPEGLPNTLFGDVAMVVEFLSCYSGLLLPDAQYPITAVSLMEALSADKGGFLYLNRVLVILLQTLLQDEIAEDYGELGMKLSEIPLTLHSVSELVRLCLRRSDVQEESEGSDTDDNKDSAAFEDNEVQDEFLEKLETSEFFELTSEEKLQILTALCHRILMTYSVQDHMETRQQMSAELWKERLAVLKEENDKKRAEKQKRKEMEAKNKENGKVENGLGKTDRKKEIVKFEPQVDTEAEDMISAVKSRRLLAIQAKKEREIQEREMKVKLERQAEEERIRKHKAAAEKAFQEGIAKAKLVMRRTPIGTDRNHNRYWLFSDEVPGLFIEKGWVHDSIDYRFNHHCKDHTVSGDEDYCPRSKKANLGKNASMNTQHGTATEVAVETTTPKQGQNLWFLCDSQKELDELLNCLHPQGIRESQLKERLEKRYQDIIHSIHLARKPNLGLKSCDGNQELLNFLRSDLIEVATRLQKGGLGYVEETSEFEARVISLEKLKDFGECVIALQASVIKKFLQGFMAPKQKRRKLQSEDSAKTEEVDEEKKMVEEAKVASALEKWKTAIREAQTFSRMHVLLGMLDACIKWDMSAENARCKVCRKKGEDDKLILCDECNKAFHLFCLRPALYEVPDGEWQCPACQPATARRNSRGRNYTEESASEDSEDDESDEEEEEEEEEEEEEDYEVAGLRLRPRKTIRGKHSVIPPAARSGRRPGKKPHSTRRSQPKAPPVDDAEVDELVLQTKRSSRRQSLELQKCEEILHKIVKYRFSWPFREPVTRDEAEDYYDVITHPMDFQTVQNKCSCGSYRSVQEFLTDMKQVFTNAEVYNCRGSHVLSCMVKTEQCLVALLHKHLPGHPYVRRKRKKFPDRLAEDEGDSEPEAVGQSRGRRQKK
For the molecule B1, in assay [1], the “Relative to UNC0638 UNC Heavy” value is listed as 0.14 log base 2, the “Relative to UNC0638 UNC Light” value was −0.38 log base 2 and the “Relative to UNC0638 Average” value is −0.12 log base 2. Also, in assay [2], the “3xMBT/D355N UNC Heavy” value is recorded as 1.37 log base 2 and the “3xMBT/D355N UNC Light” value came to 0.19 log base 2.

B2: NCBP1 (protein, UniProt Q09161 1-790, looked up)
Nuclear cap-binding protein …: MSRRRHSDENDGGQPHKRRKTSDANETEDHLESLICKVGEKSACSLESNLEGLAGVLEADLPNYKSKILRLLCTVARLLPEKLTIYTTLVGLLNARNYNFGGEFVEAMIRQLKESLKANNYNEAVYLVRFLSDLVNCHVIAAPSMVAMFENFVSVTQEEDVPQVRRDWYVYAFLSSLPWVGKELYEKKDAEMDRIFANTESYLKRRQKTHVPMLQVWTADKPHPQEEYLDCLWAQIQKLKKDRWQERHILRPYLAFDSILCEALQHNLPPFTPPPHTEDSVYPMPRVIFRMFDYTDDPEGPVMPGSHSVERFVIEENLHCIIKSHWKERKTCAAQLVSYPGKNKIPLNYHIVEVIFAELFQLPAPPHIDVMYTTLLIELCKLQPGSLPQVLAQATEMLYMRLDTMNTTCVDRFINWFSHHLSNFQFRWSWEDWSDCLSQDPESPKPKFVREVLEKCMRLSYHQRILDIVPPTFSALCPANPTCIYKYGDESSNSLPGHSVALCLAVAFKSKATNDEIFSILKDVPNPNQDDDDDEGFSFNPLKIEVFVQTLLHLAAKSFSHSFSALAKFHEVFKTLAESDEGKLHVLRVMFEVWRNHPQMIAVLVDKMIRTQIVDCAAVANWIFSSELSRDFTRLFVWEILHSTIRKMNKHVLKIQKELEEAKEKLARQHKRRSDDDDRSSDRKDGVLEEQIERLQEKVESAQSEQKNLFLVIFQRFIMILTEHLVRCETDGTSVLTPWYKNCIERLQQIFLQHHQIIQQYMVTLENLLFTAELDPHILAVFQQFCALQA
With B2, in assay [1], the “Relative to UNC0638 UNC Heavy” value was −0.32 log base 2, the “Relative to UNC0638 UNC Light” value was 0.11 log base 2 and the “Relative to UNC0638 Average” value was −0.11 log base 2. Besides, in assay [2], the “3xMBT/D355N UNC Heavy” value came out at 1.27 log base 2 and the “3xMBT/D355N UNC Light” value stood at 2.23 log base 2.

B3: SHKBP1 (protein, UniProt Q8TBC3 2-707, looked up)
SH3KBP1-binding protein 1: AAAATAAEGVPSRGPPGEVIHLNVGGKRFSTSRQTLTWIPDSFFSSLLSGRISTLKDETGAIFIDRDPTVFAPILNFLRTKELDPRGVHGSSLLHEAQFYGLTPLVRRLQLREELDRSSCGNVLFNGYLPPPVFPVKRRNRHSLVGPQQLGGRPAPVRRSNTMPPNLGNAGLLGRMLDEKTPPSPSGQPEEPGMVRLVCGHHNWIAVAYTQFLVCYRLKEASGWQLVFSSPRLDWPIERLALTARVHGGALGEHDKMVAAATGSEILLWALQAEGGGSEIGVFHLGVPVEALFFVGNQLIATSHTGRIGVWNAVTKHWQVQEVQPITSYDAAGSFLLLGCNNGSIYYVDVQKFPLRMKDNDLLVSELYRDPAEDGVTALSVYLTPKTSDSGNWIEIAYGTSSGGVRVIVQHPETVGSGPQLFQTFTVHRSPVTKIMLSEKHLISVCADNNHVRTWSVTRFRGMISTQPGSTPLASFKILALESADGHGGCSAGNDIGPYGERDDQQVFIQKVVPSASQLFVRLSSTGQRVCSVRSVDGSPTTAFTVLECEGSRRLGSRPRRYLLTGQANGSLAMWDLTTAMDGLGQAPAGGLTEQELMEQLEHCELAPPAPSAPSWGCLPSPSPRISLTSLHSASSNTSLSGHRGSPSPPQAEARRRGGGSFVERCQELVRSGPDLRRPPTPAPWPSSGLGTPLTPPKMKLNETSF
Regarding B3, in assay [1], the “Relative to UNC0638 UNC Heavy” value came to 0.71 log base 2, the “Relative to UNC0638 UNC Light” value is on record as −0.94 log base 2 and the “Relative to UNC0638 Average” value is on record as −0.12 log base 2. In addition, in assay [2], the “3xMBT/D355N UNC Heavy” value came to 2.90 log base 2 and the “3xMBT/D355N UNC Light” value was found to be 2.73 log base 2.
